# Measurements published in patent US20090280138A1 (OXFORD BIOMEDICA UK, published 2009).
# Tests used:
# [1] = target: T1, MHC class I molecule HLA-A*0201 (iTopia plate-bound monomer) (biotin (bound to streptavidin-coated plate)); experiment: iTopia off-rate assay, 37 C; fit R^2 0.59
# T1 construct: also called A2
# Experimental: (§1) The 9 mers were tested for Peptide Binding, Off Rate and Affinity using iTopia Epitope Discovery System in accordance with the manufacturer's instructions. Briefly, 96 well microtitre plates coated with MHC molecules representing different MHC alleles are used to identify candidate peptides. […] Determinations are performed in duplicate using an ELISA plate reader and included allele specific positive controls.
# (§2) A one-phase exponential decay curve, with a plateau given equal to 0, was generated using GraphPad Prism® software, which calculated the t1/2 and goodness-of-fit, as measured by r², for each peptide.
# [2] = target: T2, MHC class I molecule HLA-B*0702 (iTopia plate-bound monomer) (biotin (bound to streptavidin-coated plate)); experiment: iTopia off-rate assay, 37 C; fit R^2 0.75
# T2 construct: Commercial iTopia system; also called B7
# Experimental: as §1, §2
# [3] = target: T3, MHC class I molecule HLA-A*0301 (iTopia plate-bound monomer) (biotin (bound to streptavidin-coated plate)); experiment: iTopia off-rate assay, 37 C; fit R^2 0.94
# T3 construct: also called A3
# Experimental: as §1, §2
# [4] = target: T1, MHC class I molecule HLA-A*0201 (iTopia …); experiment: iTopia off-rate assay, 37 C; fit R^2 0.65
# Experimental: as §1, §2
# [5] = target: T1, MHC class I molecule HLA-A*0201 (iTopia …); experiment: iTopia off-rate assay, 37 C; fit R^2 0.91
# Experimental: as §1, §2
# [6] = target: T4, MHC class I molecule HLA-A*0101 (iTopia plate-bound monomer) (biotin (bound to streptavidin-coated plate)); experiment: iTopia off-rate assay, 37 C; fit R^2 0.87
# T4 construct: also called A1
# Experimental: as §1, §2
# [7] = target: T1, MHC class I molecule HLA-A*0201 (iTopia …); experiment: iTopia off-rate assay, 37 C; fit R^2 0.98
# Experimental: as §1, §2
# [8] = target: T2, MHC class I molecule HLA-B*0702 (iTopia …); experiment: iTopia off-rate assay, 37 C; fit R^2 0.91
# Experimental: as §1, §2
# [9] = target: T3, MHC class I molecule HLA-A*0301 (iTopia …); experiment: iTopia off-rate assay, 37 C; fit R^2 0.88
# Experimental: as §1, §2
# [10] = target: T4, MHC class I molecule HLA-A*0101 (iTopia …); experiment: iTopia off-rate assay, 37 C; fit R^2 0.97
# Experimental: as §1, §2
# [11] = target: T1, MHC class I molecule HLA-A*0201 (iTopia …); experiment: iTopia off-rate assay, 37 C; fit R^2 0.74
# Experimental: as §1, §2
# [12] = target: T1, MHC class I molecule HLA-A*0201 (iTopia …); experiment: iTopia off-rate assay, 37 C; fit R^2 0.82
# Experimental: as §1, §2
# [13] = target: T1, MHC class I molecule HLA-A*0201 (iTopia …); experiment: iTopia off-rate assay, 37 C; fit R^2 0.63
# Experimental: as §1, §2
# [14] = target: T2, MHC class I molecule HLA-B*0702 (iTopia …); experiment: iTopia off-rate assay, 37 C; fit R^2 0.84
# Experimental: as §1, §2
# [15] = target: T3, MHC class I molecule HLA-A*0301 (iTopia …); experiment: iTopia off-rate assay, 37 C; fit R^2 0.95
# Experimental: as §1, §2
# [16] = target: T2, MHC class I molecule HLA-B*0702 (iTopia …); experiment: iTopia off-rate assay, 37 C; fit R^2 0.66
# Experimental: as §1, §2
# [17] = target: T1, MHC class I molecule HLA-A*0201 (iTopia …); experiment: iTopia off-rate assay, 37 C; fit R^2 0.83
# Experimental: as §1, §2
# [18] = target: T1, MHC class I molecule HLA-A*0201 (iTopia …); experiment: iTopia off-rate assay, 37 C; fit R^2 0.67
# Experimental: as §1, §2
# [19] = target: T2, MHC class I molecule HLA-B*0702 (iTopia …); experiment: iTopia off-rate assay, 37 C; fit R^2 0.02
# Experimental: as §1, §2
# [20] = target: T2, MHC class I molecule HLA-B*0702 (iTopia …); experiment: iTopia off-rate assay, 37 C; fit R^2 0.15
# Experimental: as §1, §2
# [21] = target: T1, MHC class I molecule HLA-A*0201 (iTopia …); experiment: iTopia off-rate assay, 37 C; fit R^2 0.57
# Experimental: as §1, §2
# [22] = target: T2, MHC class I molecule HLA-B*0702 (iTopia …); experiment: iTopia off-rate assay, 37 C; fit R^2 0.79
# Experimental: as §1, §2
# [23] = target: T3, MHC class I molecule HLA-A*0301 (iTopia …); experiment: iTopia off-rate assay, 37 C; fit R^2 0.9
# Experimental: as §1, §2
# [24] = target: T1, MHC class I molecule HLA-A*0201 (iTopia …); experiment: iTopia off-rate assay, 37 C; fit R^2 0.05
# Experimental: as §1, §2
# [25] = target: T3, MHC class I molecule HLA-A*0301 (iTopia …); experiment: iTopia off-rate assay, 37 C; fit R^2 0.58
# Experimental: as §1, §2
# [26] = target: T1, MHC class I molecule HLA-A*0201 (iTopia …); experiment: iTopia off-rate assay, 37 C; fit R^2 0.9
# Experimental: as §1, §2
# [27] = target: T1, MHC class I molecule HLA-A*0201 (iTopia …); experiment: iTopia off-rate assay, 37 C; fit R^2 0.6
# Experimental: as §1, §2
# [28] = target: T2, MHC class I molecule HLA-B*0702 (iTopia …); experiment: iTopia off-rate assay, 37 C; fit R^2 0.68
# Experimental: as §1, §2
# [29] = target: T1, MHC class I molecule HLA-A*0201 (iTopia …); experiment: iTopia off-rate assay, 37 C; fit R^2 0.77
# Experimental: as §1, §2
# [30] = target: T2, MHC class I molecule HLA-B*0702 (iTopia …); experiment: iTopia off-rate assay, 37 C; fit R^2 0.23
# Experimental: as §1, §2
# [31] = target: T2, MHC class I molecule HLA-B*0702 (iTopia …); experiment: iTopia off-rate assay, 37 C; fit R^2 0.22
# Experimental: as §1, §2
# [32] = target: T1, MHC class I molecule HLA-A*0201 (iTopia …); experiment: iTopia off-rate assay, 37 C; fit R^2 0.66
# Experimental: as §1, §2
# [33] = target: T1, MHC class I molecule HLA-A*0201 (iTopia …); experiment: iTopia off-rate assay, 37 C; fit R^2 0.95
# Experimental: as §1, §2
# [34] = target: T4, MHC class I molecule HLA-A*0101 (iTopia …); experiment: iTopia off-rate assay, 37 C; fit R^2 0.88
# Experimental: as §1, §2
# [35] = target: T1, MHC class I molecule HLA-A*0201 (iTopia …); experiment: iTopia off-rate assay, 37 C; fit R^2 0.49
# Experimental: as §1, §2
# [36] = target: T2, MHC class I molecule HLA-B*0702 (iTopia …); experiment: iTopia off-rate assay, 37 C; fit R^2 0.11
# Experimental: as §1, §2
# [37] = target: T2, MHC class I molecule HLA-B*0702 (iTopia …); experiment: iTopia off-rate assay, 37 C; fit R^2 0.36
# Experimental: as §1, §2
# [38] = target: T1, MHC class I molecule HLA-A*0201 (iTopia …); experiment: iTopia off-rate assay, 37 C; fit R^2 0.68
# Experimental: as §1, §2
# [39] = target: T2, MHC class I molecule HLA-B*0702 (iTopia …); experiment: iTopia off-rate assay, 37 C; fit R^2 0.88
# Experimental: as §1, §2
# [40] = target: T1, MHC class I molecule HLA-A*0201 (iTopia …); experiment: iTopia off-rate assay, 37 C; fit R^2 0.89
# Experimental: as §1, §2
# [41] = target: T4, MHC class I molecule HLA-A*0101 (iTopia …); experiment: iTopia off-rate assay, 37 C; fit R^2 0.25
# Experimental: as §1, §2
# [42] = target: T2, MHC class I molecule HLA-B*0702 (iTopia …); experiment: iTopia off-rate assay, 37 C; fit R^2 0.42
# Experimental: as §1, §2
# [43] = target: T1, MHC class I molecule HLA-A*0201 (iTopia …); experiment: iTopia off-rate assay, 37 C; fit R^2 0.33
# Experimental: as §1, §2
binder,measurement,setting,value
RLDEVRAGA (also called Peptide No 65) [5T4 9-mer peptide 65 RLDEVRAGA],t½ half life,[1],9.7 h
same,t½ half life,[2],0.2 h
same,t½ half life,[3],0.2 h
SSFSSSAPF (also called Peptide No 20) [5T4 9-mer peptide 20 SSFSSSAPF],t½ half life,[4],0.4 h
VPTDLPAYV (also called Peptide No 43) [5T4 9-mer peptide 43 VPTDLPAYV],t½ half life,[5],1.1 h
same,t½ half life,[6],1.8 h
GAFARRPPL (also called Peptide No 55) [5T4 9-mer peptide 55 GAFARRPPL],t½ half life,[7],1.9 h
same,t½ half life,[8],1.3 h
HMEGYHYRY (also called Peptide No 198) [5T4 9-mer peptide 198 HMEGYHYRY],t½ half life,[9],1.7 h
same,t½ half life,[10],1.3 h
same,t½ half life,[11],6.3 h
HFLYLPRDV [5T4 9-mer peptide 111 HFLYLPRDV],t½ half life,[12],2.9 h
LAVLPAGAF (also called Peptide No 52) [5T4 9-mer peptide 52 LAVLPAGAF],t½ half life,[13],3.6 h
same,t½ half life,[14],0.3 h
RHLDLSNNS [5T4 9-mer peptide 119 RHLDLSNNS],t½ half life,[12],1.1 h
RLRLARLAL (also called Peptide No 8) [5T4 9-mer peptide 8 RLRLARLAL],t½ half life,[15],0.2 h
same,t½ half life,[1],7.2 h
same,t½ half life,[16],3.1 h
RNLTHLESL (also called Peptide No 128) [5T4 9-mer peptide 128 RNLTHLESL],t½ half life,[17],0.9 h
APFLASAVS (also called Peptide No 23) [5T4 9-mer peptide 23 APFLASAVS],t½ half life,[18],1.6 h
same,t½ half life,[19],2.6 h
DGRLRLARL (also called Peptide No 7) [5T4 9-mer peptide 7 DGRLRLARL],t½ half life,[20],2.6 h
YLNRKGIKK (also called Peptide No 188) [5T4 9-mer peptide 188 YLNRKGIKK],t½ half life,[21],6.5 h
same,t½ half life,[22],3.3 h
same,t½ half life,[23],0.7 h
IKKWMHNIR (also called Peptide No 191) [5T4 9-mer peptide 191 IKKWMHNIR],t½ half life,[24],14.6 h
VLPAGAFAR (also called Peptide No 53) [5T4 9-mer peptide 53 VLPAGAFAR],t½ half life,[25],0.5 h
same,t½ half life,[26],2.2 h
MHNIRDACR (also called Peptide No 193) [5T4 9-mer peptide 193 MHNIRDACR],t½ half life,[27],5.3 h
LQGLRRLEL [5T4 9-mer peptide 105 LQGLRRLEL],t½ half life,[28],0.2 h
same,t½ half life,[29],2.1 h
SPTSSASSF (also called Peptide No 17) [5T4 9-mer peptide 17 SPTSSASSF],t½ half life,[30],2.6 h
GGCSRGPAA (also called Peptide No 2) [5T4 9-mer peptide 2 GGCSRGPAA],t½ half life,[31],1.3 h
same,t½ half life,[32],0.5 h
FSSSAPFLA (also called Peptide No 21) [5T4 9-mer peptide 21 FSSSAPFLA],t½ half life,[33],0.3 h
same,t½ half life,[34],0.2 h
PPLAELAAL (also called Peptide No 58) [5T4 9-mer peptide 58 PPLAELAAL],t½ half life,[35],4.6 h
same,t½ half life,[36],3 h
ADPRLTNLS (also called Peptide No 204) [5T4 9-mer peptide 204 ADPRLTNLS],t½ half life,[37],3.1 h
RDACRDHME (also called Peptide No 195) [5T4 9-mer peptide 195 RDACRDHME],t½ half life,[38],3 h
LPSLRQLDL (also called Peptide No 71) [5T4 9-mer peptide 71 LPSLRQLDL],t½ half life,[39],3.1 h
same,t½ half life,[40],1.4 h
LAELAALNL (also called Peptide No 59) [5T4 9-mer peptide 59 LAELAALNL],t½ half life,[41],2.5 h
same,t½ half life,[42],3.2 h
same,t½ half life,[43],13.1 h
